In patent publication EP4306640A1:

Target: human CXCR4 (C-X-C chemokine receptor type 4), endogenous on human leukemia cell lines (human) (UniProt P61073)
Experiment: cell-based or functional assay

UniProt P61073, sequence (P61073 whole entry): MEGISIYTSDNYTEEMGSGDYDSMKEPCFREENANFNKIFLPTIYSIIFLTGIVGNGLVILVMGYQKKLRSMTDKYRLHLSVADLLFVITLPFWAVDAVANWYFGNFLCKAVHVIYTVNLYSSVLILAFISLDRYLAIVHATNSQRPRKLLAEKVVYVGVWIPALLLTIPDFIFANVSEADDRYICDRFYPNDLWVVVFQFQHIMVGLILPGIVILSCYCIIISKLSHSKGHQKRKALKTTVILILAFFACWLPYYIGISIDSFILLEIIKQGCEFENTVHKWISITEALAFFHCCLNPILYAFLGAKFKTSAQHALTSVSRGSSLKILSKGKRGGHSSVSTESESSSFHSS

stimulation of migration of BV-173 cells (chemotaxis assay), half-maximal stimulation: 3 nM
stimulation of migration of Jurkat cells (chemotaxis assay), half-maximal stimulation: 0.3 nM
stimulation of migration of Nalm-6 cells (chemotaxis assay), half-maximal stimulation: 0.3 nM
stimulation of migration of U937 cells (chemotaxis assay), half-maximal stimulation: 3 nM
Substance: human CXCL12α (ligand)
